We go through 70 sequences from the domain aggregation screens of Martell et al. (2025).
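Further: 20 min heating vs room temperature control held 20 min.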

This data set is described as follows: soluble fraction after stress (log2 fold change); higher = more stays soluble; pooled small domains, quantitative proteomics. Conditions: stress: 75 degC.
As to “HMPNILLSVKDASVAISVSSKMVRLLIASGRLKAVNLGKRMTRISLQELTDFAQRQGGNVVLP”, the “soluble fraction (log2)” value was -0.123.
As for “HMPNLAAAIGARVTIRLREASGGFRDIVGTLQRFGDGVNELLNSKGQIISFSEDEIAIWREIK”, the “soluble fraction (log2)” value was -3.33.
Then “HMPNQIKQIAVNTASVSDIATIPGISFDFAKEIWEFRILRQKIGSLSELQKIEGMTASKYALIELYLHI”, with -3.71; and “HMPNSIKAPAYLHNIARIYDHVLIDVEKASSAYEKLIKKYPNHPLSINAKLYLENAFNRSDEELLNMIKEN”, with -0.892.
Consider “HMPNYVEMLRLHEAGFSLRQIAKLVSSGRNTVTRTVNIAQEKELSYEEIAQWSSEELENMFKPD”, for which the “soluble fraction (log2)” value was -2.25.
In the case of “HMPPDIKVVGVTVASDPRASFAMLSSNGKTLSYRVNDLIEGTEYHLIKVEAAAITIATAGGQSTQIAF” it was -2.54; in that of “HMPPFTYHLERAKRKTVGFIVDERGVTVRAPRWVSVSEIEKMLQTKEAWIQKKLTEFHNWQKE”, -3.39.
Take “HMPPHGHIVELLPEQDFGRIETGDGRLVYFHRNSVLDGDFAQLAVGDAVRFAEEMGERGPQASSVHVE”: the “soluble fraction (log2)” value came out at 0.0508.
Then “HMPPLKYLKVKSYLEAVAVKAESAMRMPTVRELMNQFNVSLATVNRALSELENDGVIVRRQGSGIVAAG”, with -0.00508; and “HMPPSGPWEQDPPSEAQLKPFNEAMKRTADIDVDLYEKAKKALNDGTITKGNIYDWINREDSPWVLQDGS”, with 0.241; and “HMPPSQRVNRILSLAGITSRRKADEYILEGRVTVNGEVLKEPGAKAVWGTDDIRVDGKPIPALS”, with 0.0835.
In the case of “HMPPSVAETLKRLRRHKSLSLEELAQMSGVSRSMLSQIERDATNPTVATLWRITAALGVSIDEVLGV”, the “soluble fraction (log2)” value was -2.43.
Then “HMPPTEQVYRSHVPPQYDGFPIEKYFTTRFSYQDVEEWSRQILAGKIEVNGKTALIGQILSASDLTVTRA”, with -0.895; and “HMPQETPIPKSEIQSYDEIWLEPISTDNILRNELRGWYHVKDRWVENEFGNRFYLDTYASKWLAFPS”, with -0.333; and “HMPQKIVIQKGVVIKKRERSDAWQIYITVKGKKPIRKSANTDNVEKAKQMALTLFAEKNYKVENNLPIQ”, with -1.17.
On to “HMPQLSNEEQKIVDALEGSDGKQINLITVETNIPMARLMSVLFEMEMRGIVKSLNGARYKLN”, for which the “soluble fraction (log2)” value is -1.3.
On to “HMPQTDDSEPLGKYGRMRLAYLKNQRPVLYNQMLLNGTLWPHLQDVQKTAYEWLERTMTTLLDK”, for which the “soluble fraction (log2)” value amounted to 0.0585.
In the case of “HMPRDQQENIYLLEKGKRLYEEHLGDQRQIIGHRIMIFERILESQDHAQIRRAQSEFAEFLSHYDG” it was -0.8.
Then “HMPRDYYAVLEVSVSSTPVQIRQAYQRLARRYSPDVNFLDRDTEALFEEIVEAYRVLSNPTARTLYDRG”, with -4.52; and “HMPREQQENVYLLEKAKRLYEEYLGDQRQTIGHALAQFERVLESQDPAAIRRAQKEFGEFLERYDG”, with -0.0743; and “HMPREVKLPPDLLDALEASPEAKAFFLQLSYTHQKEYAQWIEEAKQEATRQRRLEKTVQMLLEGRRT”, with -1.27.
Then “HMPRFDINFKVGEVVTIKGGSFDGQQGEISEIDHEHGKIKVMLEVLGRLTPVEVEHTEIEKI”, with -0.269; and “HMPRKLDDQLQEQIRYLKSNYPRMSAAGIFRQLQDNGSIKHGDVSESTINRYVNLLSIEMKTTT”, with -0.395.
As to “HMPRNMTFAIRGEYITLDALLKAVGAADSGAQAKHRIAEGEVTVDGVVETRKTRKLRGGETVVVDDLAVVL”, the “soluble fraction (log2)” value was -0.734.
In the case of “HMPRQREVPDVSGWTEQHAKVYLEALGYRVKVIYLEVSSFDKGLVQETSPAKGSKVEEGDTIDLRVSNQE” it was -2.64.
For “HMPRSLGADLRAIRKGRRLTLTDMAEALDRSVGWVSQVERDISTPSISDLRRMAEILDVPVSLLFG”, the “soluble fraction (log2)” value is -3.17.
As for “HMPSARELLATNIVRLRKEKGWSQEDLALEAGLHRTFVAHVERHARNISLDNIERLANALQVNVHILLL”, the “soluble fraction (log2)” value is -3.81.
For “HMPSEDELAERLRGAIRQGDILNEGRMPPERALAEHFGVSRARLRLALGLLQEDGTIYRRHGQGTFAT”, the “soluble fraction (log2)” value is -0.308.
As for “HMPSIGKNILYYRKKRNMTIDELSKKSGVSKSMLSQVEQEKTNPTVVTVWKIARSLDVSINQLLQT”, the “soluble fraction (log2)” value was -2.83.
In the case of “HMPSKKHARWIELEARKFMADNEDAVSDLHELRTRAANFAALKTSTLPVDQHRAIVAGFVARVNELGRRI” it was -1.02.
In the case of “HMPSLSPDETVVVDALRQQNDMQINMISVKTNLPIARLSAILFEMELKGVLKPLAGGVYHLL” it was -2.3; in that of “HMPSPEMLKETEKRKAEEIYRSQINLFIDDYHRLKGQYPLLEDIIDNKKDSIPIEILREISISILKNYFE”, -0.802.
For the sequence “HMPSPEVELLEDLLSKTDEAEVEAAFHENQALVNDEFKAMLGSLIQELSKTQEADPEIIARIRFIQKLT”, the “soluble fraction (log2)” value is -0.128.
Then “HMPSREDFAYDSIKEAILSGELLPNQKISLSDLANKLGISIIPVNSAVGRLVAEGLVRQDPHHSPYVV”, with 0.481.
Then “HMPSRPIQVASFSKEDNAKRAAEALAKIGVTATPQKSEKAGKAVWGVVVTGDDAMLQKIKDAGFADAYFL”, with 0.0515; and “HMPSTKDGIKEFLSSGAMKGIGRKTASAIVSRFGIDTLKIIEQEPQRLTEVSGIGKKTAQRIAEAFGKH”, with -0.26; and “HMPSTVRVPDVAETSLSEAKKTIEESGLEVGAIHKVNNDTVKKNHVIKTSPTIGSAKKEGSAIDIYVSKG”, with -0.0483.
Then “HMPSTVSVPDVAGSSLSEAKTTIKSSGLKVGTVHKVSSDTVESGYVIKTSPTAGSSKKEGSSIDIYVSKG”, with no less than 1.04.
“HMPTANFPAMAEALKKQYGPPTGEEETSWTHRLGGVFDIKIQSWNTPQGEMVLRSRGAAMDAGML”: the “soluble fraction (log2)” value stood at 0.385.
Consider “HMPTEPTARELEVTTLLAQGLSNREIAGALFISEHTVRNHLGHVFSKLGVSSRTQAVVRAGQLGWLR”, for which the “soluble fraction (log2)” value is -2.54.
Then “HMPTKSDLLQWIKDRASKMGGAFTNSGAYALADAGVDGPRALSSEINKLLTYVNWERSVEADDVIRL”, with -0.455.
In the case of “HMPTLTPFDVARIENAINPRLNLETAAKLKPWIAAGYTAQETADGTGFSPDTVKKYAAIFRK” it was -0.0357.
As for “HMPTQTEELRRRIVADVNAGEPGAKLGSERELAERYGTSRSSLRQVLAALQEAGLIDRVIGRSGGIFISH”, the “soluble fraction (log2)” value was -0.0502.
With “HMPTSILEKILNSAAEQFTRYGFKTITMDDIARHAGVSKKTLYQHFETKLDIIVAAVTHFHTMKF”, the “soluble fraction (log2)” value is -1.62.
As for “HMPTYEEAKTYLKAAFEHIVAAGRDVGELVEFAFAKSGDAVAPYLRRFLSDVHEGRITIQGLTESAKLAV”, the “soluble fraction (log2)” value was 0.292.
Turning to “HMPVEQVWHIAEAGKTKGPFSRASMGRMSADGALTRDTLVWTAGQDGWKKAADVTALATLFT”, the “soluble fraction (log2)” value is 0.0108.
In the case of “HMPVFYATNRQKTTIHNLKRKKGLDDDAYRATIYSFTHGRTDSSKYMYKYEAAELIQKWLDPE” it was -1.49; in that of “HMPVGVPGVVYNTDSLNVRKGAGTNYDIVSKLKRGSVIEVLEQTAVDGTVWGRIAEGWVNMEYVSL”, -1.04.
As for “HMPVSDLQSALRNTLSKGDATDPAFRQRVYRAAMDALERATGSESDPQRRSEQKQRLIAVIRDMEASYRR”, the “soluble fraction (log2)” value came out at 0.157.
Turning to “HMPVTKSARQSRIGELIAREPVRSQSELAARLADDGIVVSQGTLSKDLLELGAVRVRTSSGELAYALL”, the “soluble fraction (log2)” value was found to be 0.0547.
As for “HMPWLIAVTVDGVNLPRFLRRAGEMGLLLTGVRIRGKHLSAFAREDDVPPLRMMAENGGWRFSVGN”, the “soluble fraction (log2)” value was -2.23.
Regarding “HMPYEHQRAVGALIRRLREQQGWSQRALADWVHMDQSAVSRVETGQRSVTAEELGRFADALHVSTDALVR”, the “soluble fraction (log2)” value is -0.263.
On to “HMPYFLKQSNTRSKGLYLQIYHSFYVPGKGSRNKSYKAIGYVSELIKNGIEDPITYAKNLVDELNNNSSTP”, for which the “soluble fraction (log2)” value was -3.82.
Turning to “HMPYPSPADLARMDELIAWVKDEGRLPRDRSGQRSERSMARWLAARRREAAEGTLDPAYRDGLAQVPGWR”, the “soluble fraction (log2)” value is -0.497.
In the case of “HMPYSAAVTFLDDAKQPMVNYNYRLIAENGIEVSGITDEFGKTQPIQTDQREKVDLYIADLPN”, the “soluble fraction (log2)” value was determined as 0.693.
“HMQAALEVQASAGVLAPVPPDQRQALLDTLAQDPRPGYQHEAGRVYGFPFGGFEVRFTVSDGLLTVLSAYK”: the “soluble fraction (log2)” value was -1.82.
In the case of “HMQAATQVNIVGLFSNKAVVIINGGKPKTLSVGQTSEGVKLLAADSQTATLQIEGKTQQLGMGQAASVGG” it was -0.758; in that of “HMQAESLTVVRSAELKADRFLDAATLQTLQTGQVVESLRTESGWVQVRIAGQQGWVRAMNVKGA”, -1.1.
In the case of “HMQAITVNNEGKIFLNTIPVTLEELSSKLESLKSSTPEFPVVIRGDSGSQYQGIMDVLNVVGRLGITQIGL” it was -0.708; in that of “HMQAKDVEVPDYVGKSFVSIKENNPNDFKFEVKSEYDESKEMGVILDQEPKGGSMKVKSGSTITVTV”, 0.156; in that of “HMQASPADLLSDRELEVFQLTGEWKTTRQIAQELHLSVKTIEYYREQIKRKLNLKSAAELTQHATAWVQRG”, -2.93.
Then “HMQDAVASEKIQLMSEALHARDTGDLLLAKEKVEKLIALAPNDKNIQALLLTINQSIEDKGL”, with -0.112; and “HMQDIDIVDLKRISELIYQKYNYDFRNYAMSSFKRRVQRIIELKKLTVDGLIKRLNDTPSFINEFLDELTV”, with -0.014; and “HMQDNLKKYMDKLSQRDAELIVYKYLWNMSEKEISEMFHIKQEQVHVYVGRAKKRLFKIIKKEME”, with -0.425.
In the case of “HMQDRDKNIEEGRQLVLHEMDRLDLVDEPLHDVARQLNMKAVEDMFAAVGAGDLRLGQIIHQLLKQADTN”, the “soluble fraction (log2)” value was -0.215.
On to “HMQDSIYYAQYRINIRNMPSSEGMVISRASVGEALEVLDWQEQWSKVRKQSGVEGYVASRLLTK”, for which the “soluble fraction (log2)” value is -2.34.
In the case of “HMQDTIDLVIQVNGKLRGQMNVPKDTDRATIEQLAINLENVQKIVAGNAIKKIIIVPGRLINIVVSKNL” it was -2.78.
In the case of “HMQDTYQVKLLTNLNIRKSPNGTIVQKGGAKKGIIYTIVETSGTWGRLKSNAGWISVSDKYVTK” it was -3.58.
Regarding “HMQDVKRYLVNSNQLNVRTGPGKEFEISESLNKGDAVTLLHKESNGWWEVITSTGQGYVYSSMLTKDPW”, the “soluble fraction (log2)” value was -0.735.
In the case of “HMQDVVERIKKYKQLFSITSEELSKRSGIPLGTLNKILSSSTKSIKTETLAAIAKGLDVSVSDLVGREK” it was -0.251.
